Holding throughout (test): purified protein
Format in all cases: biochemical, Aedes aegypti
What all share (conditions): 0.4 mM acetyl-CoA, 50 mM Tris-HCl, 1 mg/mL BSA, room temperature, 5 min; apparent Km

Substrate in data set [1]: NCCCNCCCCNCCCN
Substrate in data set [2]: NN
Substrate in data set [3]: N=C(N)NCCCCN
Substrate in data set [4]: NCCCCN
Substrate in data set [5]: NCCc1c[nH]cn1
Substrate in data set [6]: NCCCCNCCCN

These results are taken from paper PMC5858766, “Identification of aaNAT5b as a spermine N-acetyltransferase in the mosquito, Aedes aegypti” (PLoS ONE, 2018).

B1: aaNAT5b/SAT (Aedes aegypti) (protein)
chain: MVAPESIVLRVARLDELEQVREILHRIYYPEEGITISYVHGKSHTLDDERFSLSFVEQGTVVVAEDSAAKKFIGVSIAGPIQPGDPDAMVEEAATTETKKWGDILKLLALLERTADVCGRYGLEKAYHVHILAVDPTYRGHSLGQRLLQFQMDLSKKLGFKAISGDFTSVFSVKLAEKLGMECISQLALGDYRDEKGEKLFEPLDVHQVIKTCVKLL
notes: about 25 kDa; monomer
As to B1, the Km was determined as 170 ± 40 µM in the data set “purified protein [1]”; 260 ± 30 µM in the data set “purified protein [2]”; 210 ± 50 µM in the data set “purified protein [3]”; 520 ± 110 µM in the data set “purified protein [4]”; 700 ± 130 µM in the data set “purified protein [5]”; 690 ± 120 µM in the data set “purified protein [6]”. For the same protein, the kcat in the data set “purified protein [1]” came to 3.32 ± 0.2 s⁻¹; in the data set “purified protein [2]” it was 0.637 ± 0.0283 s⁻¹; in “purified protein [3]”, 2.5 ± 0.183 s⁻¹; in the data set “purified protein [4]” it was 0.503 ± 0.0267 s⁻¹; in “purified protein [5]” it was 0.277 ± 0.0217 s⁻¹; in “purified protein [6]”, 0.26 ± 0.0233 s⁻¹. Also, the specificity constant (kcat/Km) in the data set “purified protein [1]” amounted to 19500 M⁻¹ s⁻¹; in the data set “purified protein [2]”, 2450 M⁻¹ s⁻¹; in the data set “purified protein [3]” it was 11900 M⁻¹ s⁻¹; in the data set “purified protein [4]”, 967 M⁻¹ s⁻¹; in the data set “purified protein [5]” it was 400 M⁻¹ s⁻¹; in “purified protein [6]”, 383 M⁻¹ s⁻¹.

The term Km denotes the substrate concentration at which the rate is half of its maximum. One may read the kcat as the number of substrate molecules converted per active site and unit of time at saturation. One may read the kcat/Km as the turnover number divided by the Michaelis constant.
